This assay addresses T1, RANKL-兔Fc (rabbit, UniProt O14788 140-317 (human entry), limits assumed).
T1 sequence (looked up): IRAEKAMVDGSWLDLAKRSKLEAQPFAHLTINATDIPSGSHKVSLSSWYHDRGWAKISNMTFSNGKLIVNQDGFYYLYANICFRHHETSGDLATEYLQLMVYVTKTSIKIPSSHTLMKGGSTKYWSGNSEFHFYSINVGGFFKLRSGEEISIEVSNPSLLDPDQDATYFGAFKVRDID
As to the kind of experiment: cell-based or functional assay.

Results on 3 molecules are retold here after patent publication CN111704670A (MABWELL SHANGHAI BIOSCIENCE CO LTD; JIANGSU MABWELL NEW …, dated 2020).

B1: 重组人源抗RANKL抗体IgG2型二硫键异构体IgG2-B型 (antibody, V domains shown)
VH: EVQLLESGGGLVQPGGSLRLSCAASGFTFSSYAMSWVRQAPGKGLEWVSGITGSGGSTYYADSVKGRFTISRDNSKNTLYLQMNSLRAEDTAVYYCAKDPGTTVIMSWFDPWGQGTLVTVSS
VL: EIVLTQSPGTLSLSPGERATLSCRASQSVRGRYLAWYQQKPGQAPRLLIYGASSRATGIPDRFSGSGTDFTLTISRLEPEDFAVFYCQQYGSSPRTFGQGTKVEIKR
In the case of B1, the “异构体生物活性 IC50” value stood at 3 ng/mL.

B2: 重组人源抗RANKL单克隆抗体IgG2型 (TK006) (antibody, V domains shown)
VH: B1 VH
VL: B1 VL
With B2, the “生物学活性量效曲线 IC50 (RAW264.7 TRAP/pNPP assay); 原液 lot 20131201” value is 1.07 ng/ml; the “生物学活性量效曲线 IC50 (RAW264.7 TRAP/pNPP assay); 原液 lot 20140201” value was determined as 1.63 ng/ml; the “生物学活性量效曲线 IC50 (RAW264.7 TRAP/pNPP assay); 工作参考品 lot 20140301, plate with Denosumab” value worked out at 1.11 ng/ml; the “生物学活性量效曲线 IC50 (RAW264.7 TRAP/pNPP assay); 工作参考品 lot 20140301, plate with lot 20131201” value is 1.33 ng/ml. Also, the “生物学活性量效曲线 IC50 (RAW264.7 TRAP/pNPP assay); 工作参考品 lot 20140301, plate with lot 20140201” value worked out at 1.34 ng/ml.

B3: 重组人源抗RANKL抗体IgG2型二硫键异构体IgG2-A型 (antibody, V domains shown)
VH: B1 VH
VL: B1 VL
Turning to B3, the “异构体生物活性 IC50” value was found to be 2.89 ng/mL.
